From the supplement of paper PMC7877785
± gives the uncertainty stated by the source.

Assay: self-splicing fitness, log relative to wild type (ln ratio); higher = more splicing; Tetrahymena group I intron in knt gene, E. coli kanamycin selection, DiMSum; sequences stand for … in CUCUCU…GGAGGGAAAAGUUAUCAGGCAUGCACCUGGUAGCUAGUCUUUAAACCAAUAGAUUGCAUCGGUUUAAAAGGCAAGACCGUCAAAUUGCGGGAAAGGGGUCAACAGCCGUUCAGUACCAAGUCUCAGGGGAAACUUUGAGAUGGCCUUGCAAAGGGUAUGGUAAUAAGCUGACGGACAUGGUCCUAACCACGCAGCCAAGUCCUAAGUCAACAGAUCUUCUGUUGAUAUGGAUGCAGUUCACAGACUAAAUGUCGGUCGGGGAAGAUGUAUUCUUCUCAUAAGAUAUAGUCGGACCUCUCCUUAAUGGGAGCUAGCGGAUGAAGUGAUGCAACACUGGAGCCGCUGGGAACUAAUUUGUAUGCGAAAGUAUAUUGAUUAGUUUUGGAGUACUCGUGGUCG
Summary of the method: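 The eight P1ex-region nucleotides of an intron in the knt kanamycin-resistance gene on pET-22b(+) were all randomised and the library put into E. coli BL21(DE3). Six replicate transformations were grown overnight at 37°C or 30°C on LB agar with or without 25 μg/mL kanamycin, together with 100 μg/mL carbenicillin, 50 μM IPTG and 0.2% rhamnose. Colonies were pooled and amplicon-sequenced on an Illumina HiSeq 2500. Fitness from DiMSum is the error-weighted combination of wild-type-normalised replicate fold changes, kanamycin over none.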

Sequence	self-splicing fitness (ln) (30 °C)	self-splicing fitness (ln) (37 °C)
CCACAGCAAUAUUACGUGUA	-3.23 ± 0.096	-1.63 ± 0.069
CCACAGCAAUAUUACGUUGG	-3.83 ± 0.11	-2.51 ± 0.13
CCACAGCAAUAUUACGUUUA	-3.53 ± 0.15	-2.47 ± 0.16
CCACAGCAAUAUUACGUUUG	-1.7 ± 0.054	-0.24 ± 0.069
CCAGAGCAAUAUUACGCAGU	-3.22 ± 0.13	-3.42 ± 0.21
CCAGAGCAAUAUUACGCCCG	-2.01 ± 0.26	-1.17 ± 0.37
CCAGAGCAAUAUUACGCGUA	-1.99 ± 0.19	-4.46 ± 0.38
CCAGAGCAAUAUUACGCGUG	-0.704 ± 0.069	-0.93 ± 0.095
CCAGAGCAAUAUUACGCUAG	-3.84 ± 0.29	-2.38 ± 0.28
CCAGAGCAAUAUUACGCUAU	-3.78 ± 0.43	-2.26 ± 0.37
CCAGAGCAAUAUUACGGACG	-1.73 ± 0.069	-0.584 ± 0.085
CCAGAGCAAUAUUACGGAGA	-2.38 ± 0.26	
CCAGAGCAAUAUUACGGAGC	-2.89 ± 0.35	
CCAGAGCAAUAUUACGGCGU	-4.2 ± 0.23	-3.29 ± 0.29
CCAGAGCAAUAUUACGGCUA	-2.84 ± 0.2	-2.94 ± 0.4
CCAGAGCAAUAUUACGGGAU	-4.38 ± 0.3	-2.48 ± 0.18
CCAGAGCAAUAUUACGGGGA	-3.06 ± 0.18	-2.61 ± 0.21
CCAGAGCAAUAUUACGGUCU	-4.02 ± 0.18	-2.31 ± 0.23
CCAGAGCAAUAUUACGGUUG	-1.11 ± 0.089	-1.04 ± 0.13
CCAGAGCAAUAUUACGUACA		-2.77 ± 0.29
CCAGAGCAAUAUUACGUACU		-1.97 ± 0.18
CCAGAGCAAUAUUACGUCGG	-4.42 ± 0.17	-2.2 ± 0.13

Sequence	self-splicing fitness (ln) (30 °C)	self-splicing fitness (ln) (37 °C)
CCAGAGCAAUAUUACGUCUU	-3.89 ± 0.21	-3.03 ± 0.2
CCAGAGCAAUAUUACGUGGG	-3.73 ± 0.27	-2.29 ± 0.18
CCAGAGCAAUAUUACGUUAG	-3.15 ± 0.097	-1.72 ± 0.097
CCAUAGCAAUAUUACGACAU	-3.882 ± 0.026	-2.93 ± 0.04
CCAUAGCAAUAUUACGAGGG	-3.56 ± 0.15	-2.25 ± 0.19
CCAUAGCAAUAUUACGAUAC	-3 ± 0.29	-2.33 ± 0.23
CCAUAGCAAUAUUACGAUAU	-3.76 ± 0.2	-2.97 ± 0.19
CCAUAGCAAUAUUACGAUGG	-3.35 ± 0.17	-2.38 ± 0.18
CCAUAGCAAUAUUACGAUGU	-3.94 ± 0.22	-2.71 ± 0.2
CCAUAGCAAUAUUACGCACG	-0.758 ± 0.081	-0.715 ± 0.1
CCAUAGCAAUAUUACGCCUG	-1.08 ± 0.084	0.137 ± 0.099
CCAUAGCAAUAUUACGCUUC		-2.24 ± 0.49
CCAUAGCAAUAUUACGGAAU	-1.22 ± 0.15	-2.38 ± 0.2
CCAUAGCAAUAUUACGGGUG	-1 ± 0.06	-1.48 ± 0.078
CCAUAGCAAUAUUACGGGUU	-3.69 ± 0.17	-3.79 ± 0.34
CCAUAGCAAUAUUACGGUCG	-0.61 ± 0.069	-0.291 ± 0.095
CCAUAGCAAUAUUACGUACA	-3.14 ± 0.21	-1.96 ± 0.21
CCAUAGCAAUAUUACGUCUC	-4.6 ± 0.28	-3.05 ± 0.22
CCAUAGCAAUAUUACGUGGC	-4.63 ± 0.29	-2.43 ± 0.24
CCAUAGCAAUAUUACGUGUC	-3.89 ± 0.2	-2.45 ± 0.23
CCAUAGCAAUAUUACGUUGA	-3.57 ± 0.26	-2.31 ± 0.15
